This note sets out measurements from PMC10326918.

The assay deals with Concanavalin A (Canavalia ensiformis). The experiment in a line: native MS; static nESI under native-like conditions, 200 mM ammonium acetate pH 6.8, 5 uM monomer; tetramer [M + 21H]21+ ions (m/z 4901) selected with the quadrupole, then 193 nm UVPD or HCD, read by Orbitrap or orthogonal TOF/TPX3; tetramer dissociates to monomers and trimers.

The term stoichiometry N denotes a count of units in the complex or per binding partner. Take Concanavalin A (natural protein): the stoichiometry N was 4.
